The record followed here is article PMC7861197 (Molecular pharmaceutics, 2020).

For orientation: AUC means the area under the concentration-time curve, a measure of exposure. Read a high AUC as more exposure. In general, Cmax refers to the peak of the concentration-time curve. One may read the MRT as a mean duration of stay, worked out from the concentration-time curve. As usually defined, the Vd is the apparent volume that relates the amount in the body to the concentration in plasma or blood. A higher Vd goes with extensive tissue distribution. One may read the clearance as the rate of elimination divided by the concentration. Higher therefore signals efficient removal. A word on the half-life: it is how long it takes for the measured level to halve. A word on the Vss: it is the apparent volume that relates the amount in the body to the concentration in plasma or blood.

Data set [1] can be described thus: FTC concentrations in rat tissues by LC-MS/MS. The format is in vivo, Sprague Dawley rats. To be noted: for concentration at 4 h: male, Sprague Dawley, rat, iv.
In a further data set the test system is human PBMCs. The settings on record: 24 h incubation at 10 ug/mL FTC, normalized to soluble protein.
For data set [2] the following is noted: rat axillary lymph nodes, 4 h post dose.
A short description of data set [3]: Plasma pharmacokinetics of PLS-FTC vs FTC in rats.
Data set [4] concerns wild-type RAW 264.7 cells. The experiment in a line: Flow cytometry of PLS-488 uptake, wild-type RAW 264.7 cells. Format: cell-based, murine. The settings on record: wild-type RAW 264.7, 24 h incubation.
For data set [5], the system named is SR-A1 deficient RAW 264.7 derivative cell line (Clone 1/2). The experiment in a line: Flow cytometry of PLS-488 uptake, SR-A1 deficient Clone 1/2. The format is cell-based, murine. The settings on record: SR-A1 deficient Clone 1/2, 24 h incubation. A general note: In flow cytometry, cells or beads pass a laser one at a time.
In data set [6] the test system is wild type Raw 264.7 cells. Kind of data set: Confocal microscopy of PLS-488 uptake, wild type RAW 264.7 cells. The format is cell-based, murine.
Data set [7] relates to SR-A1 knockout Raw 264.7 cells (clone 1/2). The experiment in a line: Confocal microscopy of PLS-488 uptake, SR-A1 deficient RAW cells. Format: cell-based, murine. The settings on record: SR-A1 deficient RAW cell line.
Data set [8] is described as follows: Lymph node distribution of PLS-488 in mice, anti-Alexa488 immunohistochemistry. The format is in vivo, C57BL/6 mice. The settings on record: 6 h and 24 h.
The nature of data set [9]: In vitro drug release in human plasma with or without esterase inhibitor PMSF. To be noted: PMSF-treated vs untreated human plasma.
Data set [10] has as its target T1, scavenger receptor A (SR-A) (Mus musculus, UniProt P30204).
T1 sequence (P30204 1-458): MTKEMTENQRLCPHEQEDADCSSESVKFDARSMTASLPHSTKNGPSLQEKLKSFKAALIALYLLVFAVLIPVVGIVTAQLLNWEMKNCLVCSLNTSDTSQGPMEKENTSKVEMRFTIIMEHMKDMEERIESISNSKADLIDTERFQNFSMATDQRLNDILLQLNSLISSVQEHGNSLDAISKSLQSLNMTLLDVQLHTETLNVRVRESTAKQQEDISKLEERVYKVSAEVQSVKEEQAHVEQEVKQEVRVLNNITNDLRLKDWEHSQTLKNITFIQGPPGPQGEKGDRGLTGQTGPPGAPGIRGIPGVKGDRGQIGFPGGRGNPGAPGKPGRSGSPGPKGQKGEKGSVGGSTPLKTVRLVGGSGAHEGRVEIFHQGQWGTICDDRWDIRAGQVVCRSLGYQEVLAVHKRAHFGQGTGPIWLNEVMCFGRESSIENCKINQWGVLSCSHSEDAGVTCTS
Kind of data set: Scavenger receptor A competitive inhibition studies in RAW 264.7 cells. Format: cell-based, murine. The settings on record: RAW 264.7, 3 h co-treatment, 200 μg/mL poly I or poly C, PLS-488 4.22 ng/mL to […] (Figure 2A).

Where [11] appears, read: male, Sprague Dawley, rat, plasma, iv, 10 mg/kg.
Setting [12] is: rats, 4 h post i.v. injection, 10 mg FTC equivalents/kg, mean ± SD, n=3.
Setting [13] is: FTC in plasma, rats, i.v. bolus 10 mg FTC equivalents/kg, mean ± SD (n=8).
[14] abbreviates: rats, i.v. bolus 10 mg FTC equivalents/kg.

Consider `Nc1nc(=O)n([C@@H]2CS[C@H](CO)O2)cc1F` [FTC, Emtricitabine, reference compound], for which, in data set [1] (axillary lymph node, 10 mg FTC equivalents/kg), the concentration at 4 h worked out at 109 ± 37 ng/g. Further, the concentration at 4 h in [1] (inguinal lymph node, 10 mg FTC equivalents/kg) worked out at 87 ± 51 ng/g. The concentration at 4 h in data set [1] (liver, 10 mg FTC equivalents/kg) came out at 119 ± 51 ng/g. In data set [1] (popliteal lymph node, 10 mg FTC equivalents/kg), the concentration at 4 h is 105 ± 64 ng/g. The concentration at 4 h in data set [1] (spleen, 10 mg FTC equivalents/kg) is 106 ± 44 ng/g. Besides, in the data set on human PBMCs, the “FTC concentration in PBMCs” value is 182 ± 18 ng/mg protein. In addition, in [2], the “FTC signal abundance (IR-MALDESI MSI)” value came out at 18.5 ± 16.6 arbitrary units and the frequency of detection is 2.9 ± 2.8 % of sampling locations with measurable drug. In [3] (setting [11]), the AUC is 6400 ± 1010 ng·h/mL, the C0 turned out to be 10600 ± 2950 ng/mL, the Cmax was 5850 ± 853 ng/mL and the MRT is 1.8 ± 0.32 h. In data set [3] (setting [11]), this compound showed a volume of distribution (Vd) of 2.94 ± 1.09 L/kg, a clearance of 26.7 mL/min/kg and a half-life of 14.1 ± 5.17 h.
As for “AlexaFluor488-labelled poly(L-lysine succinylated) [PLS-488]”, the “uptake of PLS-488 by flow cytometry” value in [4] is reported as “uniform uptake”; in data set [5], “no uptake”. The “PLS-488 uptake by confocal microscopy” value in data set [6] (wild type Raw 264.7, 1 μg/mL, 0.5 h) was “uptake was observed at the earliest 0.5 h time point”; in data set [7], “greatly reduced PLS-488 uptake”. For the same compound, the “PLS-488 fluorescence signal after 24 h treatment” value in data set [6] (wild type vs SR-A1 deficient Raw cells, 1 μg/mL, 24 h) is reported as “markedly greater in the wild type Raw 264.7 cells than the SR-A1 deficient Raw cells”. Also, the “accumulation in lymph nodes (IHC)” value in data set [8] (intradermal injection into foot pads) is “robust accumulation of PLS-488 in regions of the draining (popliteal) and peripheral (axillary and inguinal) lymph nodes”; in [8] (intravenous tail vein injection), “early accumulation of PLS-488 into myeloid-rich regions of the deep mesenteric lymph nodes by 6 h, with later accumulation in peripheral lymph nodes”.
Regarding “poly(L-lysine succinylated) FTC prodrug [PLS-FTC]”, in data set [1] (setting [12]), the “FTC concentration in axillary lymph node” value came to 811 ± 65 ng/g, the “FTC concentration in inguinal lymph node” value worked out at 587 ± 56 ng/g, the “FTC concentration in liver” value is on record as 2,257 ± 143 ng/g and the “FTC concentration in mesenteric lymph node” value is reported as 850 ± 540 ng/g. Also, in [1] (setting [12]), the “FTC concentration in popliteal lymph node” value was 864 ± 330 ng/g and the “FTC concentration in spleen” value was 1,788 ± 164 ng/g. Moreover, the “fold higher concentrations in lymphatic tissues compared to free FTC control” value in [1] (rats, 4 h post injection, lymph nodes, liver, spleen) lay in the range of 7 to 19 fold. For the same compound, in [1] (rats, 24 h after i.v. bolus), the “FTC concentration in LN inguinal at 24 h” value is “below limit of quantitation”. For the same compound, the “prolongation of release half-life in PMSF-treated plasma” value in data set [9] is ~ 2 fold. For the same compound, in data set [3] (setting [13]), the AUCall is given as 11100 ± 3281 ^* h*ng/mL, the C0 was determined as 4901 ± 3621 ng/mL, the Cl turned out to be 17.55 ± 10.3 mL/min/kg and the Cmax worked out at 3839 ± 1734 ng/mL. For the same compound, in data set [3] (setting [13]), the mean residence time MRT was determined as 3.64 ± 0.47 h, the T1/2 amounted to 6.99 ± 2.62 h and the Vss was found to be 3.816 ± 2.254 L/kg. Further, in [3] (setting [14]), the “fold higher area under the concentration-time curve vs FTC control” value is recorded as 2 fold, the “fold higher mean residence time vs FTC control” value turned out to be 2 fold, the “fold lower concentration time zero vs FTC control” value stood at 2 fold and the “fold lower half-life vs FTC control” value came out at 2 fold.
In the case of “poly(cytidylic acid) potassium salt [poly C]”, the “inhibition of PLS-488 binding to macrophages” value in data set [10] was “not with the control polymer poly C”.
